Measurements published in patent US20260285931 (published 2026).
Residue numbers refer to the chain shown, from its start.

T1: CD127-Fc (IL-7Ralpha Fc) (human, UniProt P16871)
T1 chain: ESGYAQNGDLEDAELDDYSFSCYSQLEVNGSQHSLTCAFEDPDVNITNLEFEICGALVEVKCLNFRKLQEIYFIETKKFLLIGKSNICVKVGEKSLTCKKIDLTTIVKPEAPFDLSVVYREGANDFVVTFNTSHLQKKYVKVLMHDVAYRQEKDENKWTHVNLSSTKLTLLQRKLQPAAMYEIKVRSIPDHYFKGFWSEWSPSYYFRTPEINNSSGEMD

B1: IL-7_s5 (designed binder)
chain: KKLNDLCFLKRLLQEIKTCWNKILQKFGERAAKQYESVLMVSIDQLLDSMKEIGSNCLNNEFNFFKRHICDANKECMFLFRAARKLRQFLKMQSTGDFDLHLLKVSEGTTILLQSTGCS
B2: IL-7_s13 (designed binder)
chain: KKLNDLCFLKRLLQEIKTCWNKILVEKCSKADDKETCFAEDGKQYESVLMVSIDQLLDSMKEIGSNCLNNEFNFFKRHICDANKECMFLFRAARKLRQFLKMQSTGDFDLHLLKVSEGTTILLQSTGCS
B3: IL-7_s13a (designed binder)
chain: KKLNDLCFLKRLLQEIKTCWNKICSKADDKETCKQYESVLMVSIDQLLDSMKEIGSNCLNNEFNFFKRHICDANKECMFLFRAARKLRQFLKMQSTGDFDLHLLKVSEGTTILLQSTGCS
B4: IL-7_s12 (designed binder)
chain: KKLNDLCFLKRLLQEIKTCWNKLHEKTPVSDRVTKQYESVLMVSIDQLLDSMKEIGSNCLNNEFNFFKRHICDANKECMFLFRAARKLRQFLKMQSTGDFDLHLLKVSEGTTILLQSTGCS
B5: IL-7_s2 (designed binder)
chain: KKLNDLCFLKRLLQEIKTCWNKICSAKQEPERNECFKQYESVLMVSIDQLLDSMKEIGSNCLNNEFNFFKRHICDANKECMFLFRAARKLRQFLKMQSTGDFDLHLLKVSEGTTILLQSTGCS
B6: IL-7_s8 (designed binder)
chain: B5 chain with I23E, A26E, Q28P, E29L, P30L, R32K, N33S, E34H, F36I
B7: IL-7_s7 (designed binder)
chain: KKLNDLCFLKRLLQEIKTCWNKIVHTECSHGDLLECADDRKQYESVLMVSIDQLLDSMKEIGSNCLNNEFNFFKRHICDANKECMFLFRAARKLRQFLKMQSTGDFDLHLLKVSEGTTILLQSTGCS
B8: IL-7_s10 (designed binder)
chain: KKLNDLCFLKRLLQEIKTCWNKYTKKVPQVSTPTLVQYESVLMVSIDQLLDSMKEIGSNCLNNEFNFFKRHICDANKECMFLFRAARKLRQFLKMQSTGDFDLHLLKVSEGTTILLQSTGCS
B9: IL-7_s10a (designed binder)
chain: B8 chain with V36K
B10: IL-7_s11 (designed binder)
chain: KKLNDLCFLKRLLQEIKTCWNKKVGSKCSKHPEAKRMPCAEDYLKQYESVLMVSIDQLLDSMKEIGSNCLNNEFNFFKRHICDANKECMFLFRAARKLRQFLKMQSTGDFDLHLLKVSEGTTILLQSTGCS
B11: IL-7 wt-degly (protein)
chain: DCDIEGKDGKQYESVLMVSIDQLLDSMKEIGSNCLNNEFNFFKRHICDANKEGMFLFRAARKLRQFLKMQSTGDFDLHLLKVSEGTTILLQCTGQVKGRKPAALGEAQPTKSLEEQKSLKEQKKLNDLCFLKRLLQEIKTCWNKILMGTKEH
B12: IL-7_s4a (designed binder)
chain: KKLNDLCFLKRLLQEIKTCWNKRYKAAFTECSQAADKAACLLPKLDELKQYESVLMVSIDQLLDSMKEIGSNCLNNEFNFFKRHICDANKECMFLFRAARKLRQFLKMQSTGDFDLHLLKVSEGTTILLQSTGCS
B13: IL-7_s9 (designed binder)
chain: KKLNDLCFLKRLLQEIKTCWNKICSAAADPHECYKQYESVLMVSIDQLLDSMKEIGSNCLNNEFNFFKRHICDANKECMFLFRAARKLRQFLKMQSTGDFDLHLLKVSEGTTILLQSTGCS
B14: IL-7_s1 (designed binder)
chain: KKLNDLCFLKRLLQEIKTCWNKIFAQYLQQSPFEDHKQYESVLMVSIDQLLDSMKEIGSNCLNNEFNFFKRHICDANKECMFLFRAARKLRQFLKMQSTGDFDLHLLKVSEGTTILLQSTGCS
B15: IL-7_s6 (designed binder)
chain: KKLNDLCFLKRLLQEIKTCWNKILSQRFPKAEFAEVKQYESVLMVSIDQLLDSMKEIGSNCLNNEFNFFKRHICDANKECMFLFRAARKLRQFLKMQSTGDFDLHLLKVSEGTTILLQSTGCS
B16: IL-7_s4 (designed binder)
chain: KKLNDLCFLKRLLQEIKTCWNKIAFTECSQAADKAACLLPKLDEYESVLMVSIDQLLDSMKEIGSNCLNNEFNFFKRHICDANKECMFLFRAARKLRQFLKMQSTGDFDLHLLKVSEGTTILLQSTGCS

Target: T1, CD127-Fc (IL-7Ralpha Fc)
Test: BLI

Kd [nM]	Binder
7.57	B1
31.9	B2
3.6	B3
25.9	B4
10.6	B5
33.4	B6
56.7	B7
35.3	B8
34.6	B9
39.3	B10
64.7	B11
14.5	B12
49.3	B13
1.89	B14
17.1	B15
33.6	B16
